From publication PMC7679444 come the findings set out here.

First the molecules themselves.
B1: TMEM59 peptide (residues 268–280), wild type [modified: long spacer (Tds) at the N-terminal end, used for immobilisation; long spacer (Tds) at the N-terminal end, used for immobilisation] [not stated] / GST-HA-ATG16L1(231–607) … (parent)
chain 1: PLPVEQDDDIEVIVDETSDHTEETSPVRAISRAATKRLSQPAGGLLDSITNIFGRRSVSSFPVPQDNVDTHPGSGKEVRVPATALCVFDAHDGEVNAVQFSPGSRLLATGGMDRRVKLWEVFGEKCEFKGSLSGSNAGITSIEFDSAGSYLLAASNDFASRIWTVDDYRLRHTLTGHSGKVLSAKFLLDNARIVSGSHDRTLKLWDLRSKVCIKTVFAGSSCNDIVCTEQCVMSGHFDKKIRFWDIRSESIVREMELLGKITALDLNPERTELLSCSRDDLLKVIDLRTNAIKQTFSAPGFKCGSDWTRVVFSPDGSYVAAGSAEGSLYIWSVLTGKVEKVLSKQHSSSINAVAWSPSGSHVVSVDKGCKAVLWAQY
chain 2: YVPSEKLSIYGDL

In this assay the parent is B1. Kind of assay: peptide microarray. To be noted: with GST-HA-ATG16L1(231–607) [human], parent: 100.

chain 2 E5S: the percent of parent by setting is: (ligand 200, 50, 20 nM) 146 % WT; (ligand 800, 600, 400 nM) 135 % WT.

chain 2 E5N: the percent of parent reads like this: (ligand 200, 50, 20 nM) 269 % WT; (ligand 800, 600, 400 nM) 183 % WT.

For chain 2 E5I, the percent of parent runs as follows: (ligand 200, 50, 20 nM) 27 % WT; (ligand 800, 600, 400 nM) 32 % WT.

As for chain 2 E5P, the percent of parent worked out at 92 % WT (ligand 200, 50, 20 nM) and 97 % WT (ligand 800, 600, 400 nM).

For chain 2 E5M, the percent of parent by setting is: (ligand 200, 50, 20 nM) 217 % WT; (ligand 800, 600, 400 nM) 162 % WT.

Regarding chain 2 E5Q, the percent of parent (ligand 200, 50, 20 nM) came out at 214 % WT and the percent of parent (ligand 800, 600, 400 nM) amounted to 167 % WT.

With chain 2 E5F, the percent of parent by setting is: (ligand 200, 50, 20 nM) 22 % WT; (ligand 800, 600, 400 nM) 29 % WT.

Turning to chain 2 E5D, the percent of parent runs as follows: (ligand 200, 50, 20 nM) 123 % WT; (ligand 800, 600, 400 nM) 126 % WT.

Consider chain 2 E5L, for which the percent of parent stood at 42 % WT (ligand 200, 50, 20 nM) and 51 % WT (ligand 800, 600, 400 nM).

On to chain 2 E5V, for which the percent of parent turned out to be 47 % WT (ligand 200, 50, 20 nM) and 52 % WT (ligand 800, 600, 400 nM).

As for chain 2 E5H, the percent of parent (ligand 200, 50, 20 nM) was 303 % WT and the percent of parent (ligand 800, 600, 400 nM) is 183 % WT.

As for chain 2 E5W, the percent of parent (ligand 200, 50, 20 nM) was 105 % WT and the percent of parent (ligand 800, 600, 400 nM) amounted to 109 % WT.

As to chain 2 E5K, the percent of parent by setting is: (ligand 200, 50, 20 nM) 330 % WT; (ligand 800, 600, 400 nM) 186 % WT.

In the case of chain 2 I9L, the percent of parent (ligand 800, 600, 400 nM) worked out at 95 % WT.

Take chain 2 I9S: the percent of parent (ligand 800, 600, 400 nM) came to 61 % WT.

On to chain 2 I9D, for which the percent of parent (ligand 800, 600, 400 nM) stood at 15 % WT.

For the variant chain 2 I9K, for the setting “ligand 800, 600, 400 nM”, the percent of parent came out at 149 % WT.

On to chain 2 I9H, for which the percent of parent (ligand 800, 600, 400 nM) stood at 145 % WT.

For chain 2 I9V, the percent of parent (ligand 800, 600, 400 nM) is 109 % WT.

In the case of chain 2 I9N, the percent of parent (ligand 800, 600, 400 nM) is 51 % WT.

chain 2 I9F: the percent of parent (ligand 800, 600, 400 nM) was 159 % WT.

For chain 2 I9A, where the note is “ligand 800, 600, 400 nM”, the percent of parent came out at 76 % WT.

For the variant chain 2 I9E, the percent of parent (ligand 800, 600, 400 nM) came out at 96 % WT.

With chain 2 I9W, the percent of parent (ligand 800, 600, 400 nM) came to 200 % WT.

For chain 2 I9M, the percent of parent (ligand 800, 600, 400 nM) was 66 % WT.

On to chain 2 I9P, for which, for the setting “ligand 800, 600, 400 nM”, the percent of parent was found to be 89 % WT.

Consider chain 2 I9R, for which the percent of parent (ligand 800, 600, 400 nM) was 93 % WT.

As to chain 2 I9T, the percent of parent (ligand 800, 600, 400 nM) is 49 % WT.

For chain 2 I9G, the percent of parent (ligand 800, 600, 400 nM) turned out to be 39 % WT.

On to chain 2 I9Y, for which the percent of parent (ligand 800, 600, 400 nM) amounted to 198 % WT.

chain 2 I9Q: the percent of parent (ligand 800, 600, 400 nM) worked out at 102 % WT.

As to chain 2 S4H, the percent of parent came to 122 % WT (ligand 200, 50, 20 nM) and 106 % WT (ligand 800, 600, 400 nM).

As to chain 2 S4N, the percent of parent was 38 % WT (ligand 200, 50, 20 nM) and 30 % WT (ligand 800, 600, 400 nM).

As to chain 2 S4R, the percent of parent was 110 % WT (ligand 200, 50, 20 nM) and 110 % WT (ligand 800, 600, 400 nM).

For chain 2 S4I, the percent of parent is, setting by setting: (ligand 200, 50, 20 nM) 176 % WT; (ligand 800, 600, 400 nM) 155 % WT.

Take chain 2 S4V: the percent of parent reads like this: (ligand 200, 50, 20 nM) 156 % WT; (ligand 800, 600, 400 nM) 144 % WT.

Regarding chain 2 S4P, the percent of parent reads like this: (ligand 200, 50, 20 nM) 63 % WT; (ligand 800, 600, 400 nM) 65 % WT.

As for chain 2 S4F, the percent of parent stood at 1 % WT (ligand 200, 50, 20 nM) and 1 % WT (ligand 800, 600, 400 nM).

As for chain 2 S4K, the percent of parent runs as follows: (ligand 200, 50, 20 nM) 262 % WT; (ligand 800, 600, 400 nM) 180 % WT.

On to chain 2 S4Q, for which the percent of parent was 88 % WT (ligand 200, 50, 20 nM) and 94 % WT (ligand 800, 600, 400 nM).

As to chain 2 S4W, the percent of parent is, setting by setting: (ligand 200, 50, 20 nM) 352 % WT; (ligand 800, 600, 400 nM) 187 % WT.

Regarding chain 2 S4M, the percent of parent by setting is: (ligand 200, 50, 20 nM) 31 % WT; (ligand 800, 600, 400 nM) 32 % WT.

Take chain 2 S4Y: the percent of parent stood at 320 % WT (ligand 200, 50, 20 nM) and 188 % WT (ligand 800, 600, 400 nM).

In the case of chain 2 S4E, the percent of parent reads like this: (ligand 200, 50, 20 nM) 38 % WT; (ligand 800, 600, 400 nM) 45 % WT.

As for chain 2 S4G, the percent of parent reads like this: (ligand 200, 50, 20 nM) 49 % WT; (ligand 800, 600, 400 nM) 64 % WT.

For the variant chain 2 S4D, the percent of parent (ligand 200, 50, 20 nM) is 33 % WT and the percent of parent (ligand 800, 600, 400 nM) worked out at 29 % WT.

Take chain 2 S4L: the percent of parent is, setting by setting: (ligand 200, 50, 20 nM) 163 % WT; (ligand 800, 600, 400 nM) 157 % WT.

For chain 2 S4A, the percent of parent reads like this: (ligand 200, 50, 20 nM) 78 % WT; (ligand 800, 600, 400 nM) 73 % WT.

Regarding chain 2 S4T, the percent of parent by setting is: (ligand 200, 50, 20 nM) 62 % WT; (ligand 800, 600, 400 nM) 69 % WT.

As to chain 2 Y1R, the percent of parent runs as follows: (ligand 200, 50, 20 nM) 12 % WT; (ligand 800, 600, 400 nM) 17 % WT.

In the case of chain 2 Y1E, the percent of parent runs as follows: (ligand 200, 50, 20 nM) 13 % WT; (ligand 800, 600, 400 nM) 13 % WT.

For the variant chain 2 Y1W, the percent of parent (ligand 200, 50, 20 nM) is 120 % WT and the percent of parent (ligand 800, 600, 400 nM) amounted to 121 % WT.

Take chain 2 Y1V: the percent of parent by setting is: (ligand 200, 50, 20 nM) 15 % WT; (ligand 800, 600, 400 nM) 16 % WT.

In the case of chain 2 Y1K, the percent of parent is, setting by setting: (ligand 200, 50, 20 nM) 17 % WT; (ligand 800, 600, 400 nM) 19 % WT.

As to chain 2 Y1F, the percent of parent is, setting by setting: (ligand 200, 50, 20 nM) 139 % WT; (ligand 800, 600, 400 nM) 121 % WT.

In the case of chain 2 Y1N, the percent of parent by setting is: (ligand 200, 50, 20 nM) 21 % WT; (ligand 800, 600, 400 nM) 22 % WT.
